Here are results for one sequence from article PMC6475865.

As usually defined, the Kd is the concentration at which binding is half-saturated. A lower Kd goes with higher affinity.

Series [1] has as its system Integrase IN_CRF consensus (HIV-1 CRF63_02A1 (consensus of Siberian/Ural isolates)). As to the kind of experiment: DRaCALA (nitrocellulose). Conditions: 20 mM HEPES pH 7.2, 10 mM DTT, 7.5 mM MgCl2, 25 C; DRaCALA: 5 nM DNA, 0-500 nM IN, 20 min.
Series [2] has as its system Integrase IN_A (HIV-1 subtype A strain FSU-A). Briefly: DRaCALA (nitrocellulose). Conditions: 20 mM HEPES pH 7.2, 10 mM DTT, 7.5 mM MgCl2, 25 C; DRaCALA: 5 nM DNA, 0-500 nM IN, 20 min.

On to “GTGTGGAAAATCTCTAGCAGT (double strand) [U5B/U5A duplex]”, for which the Kd in series [1] turned out to be 23 nM; in series [2] it was 25 nM.
